The nature of data set [1]: confocal linescan, surface colocalisation, HEK293T co-expression. As to conditions: glycan lost; control: Panx2-FLAG.
The nature of data set [2]: cell-surface biotinylation, NRK. As to conditions: glycan lost; control: wild-type Panx2.
Data set [3] is described as follows: cell-surface biotinylation, AD293. As to conditions: glycan lost; control: wild-type Panx2.
The nature of data set [4]: cell-surface biotinylation, HEK293T. As to conditions: glycan lost; control: wild-type Panx2.

B1: Panx2: N86Q-FLAG (protein)
parent chain: MHHLLEQSADMATALLAGEKLRELILPGSQDDKAGALAALLLQLKLELPFDRVVTIGTVLVPILLVTLVFTKNFAEEPIYCYTPHNFTRDQALYARGYCWTELRDALPGVDASLWPSLFEHKFLPYALLAFAAIMYVPALGWEFLASTRLTSELNFLLQEIDNCYHRAAEGRAPKIEKQIQSKGPGITEREKREIIENAEKEKSPEQNLFEKYLERRGRSNFLAKLYLARHVLILLLSVVPISYLCTYYATQKQNEFTCALGASPDGPVGSAGPTVRVSCKLPSVQLQRIIAGVDIVLLCFMNLIILVNLIHLFIFRKSNFIFDKLNKVGIKTRRQWRRSQFCDINILAMFCNENRDHIKSLNRLDFITNESDLMYDNVVRQLLAALAQSNHDTTPTVRDSGIQTVDPSINPAEPDGSAEPPVVKRPRKKMKWIPTSNPLPQPFKEQLAIMRVENSKTEKPKPVRRKTATDTLIAPLLDAGARAAHHYKGSGGDSGPSSAPPAASEKKHTRHFSLDVHPYILGTKKAKTEAVPPALPASRSQEGGFLSQTEECGLGLAAAPTKDAPLPEKEIPYPTEPALPGLPSGGSFHVCSPPAAPAAASLSPGSLGKADPLTILSRNATHPLLHISTLYEAREEEEGGPCAPSDMGDLLSIPPPQQILIATFEEPRTVVSTVEF
Consider B1, for which, in data set [1], the localisation_or_trafficking entry is reported as “decreases”.

B2: Panx2: N86Q (protein)
parent chain: MHHLLEQSADMATALLAGEKLRELILPGSQDDKAGALAALLLQLKLELPFDRVVTIGTVLVPILLVTLVFTKNFAEEPIYCYTPHNFTRDQALYARGYCWTELRDALPGVDASLWPSLFEHKFLPYALLAFAAIMYVPALGWEFLASTRLTSELNFLLQEIDNCYHRAAEGRAPKIEKQIQSKGPGITEREKREIIENAEKEKSPEQNLFEKYLERRGRSNFLAKLYLARHVLILLLSVVPISYLCTYYATQKQNEFTCALGASPDGPVGSAGPTVRVSCKLPSVQLQRIIAGVDIVLLCFMNLIILVNLIHLFIFRKSNFIFDKLNKVGIKTRRQWRRSQFCDINILAMFCNENRDHIKSLNRLDFITNESDLMYDNVVRQLLAALAQSNHDTTPTVRDSGIQTVDPSINPAEPDGSAEPPVVKRPRKKMKWIPTSNPLPQPFKEQLAIMRVENSKTEKPKPVRRKTATDTLIAPLLDAGARAAHHYKGSGGDSGPSSAPPAASEKKHTRHFSLDVHPYILGTKKAKTEAVPPALPASRSQEGGFLSQTEECGLGLAAAPTKDAPLPEKEIPYPTEPALPGLPSGGSFHVCSPPAAPAAASLSPGSLGKADPLTILSRNATHPLLHISTLYEAREEEEGGPCAPSDMGDLLSIPPPQQILIATFEEPRTVVSTVEF
Turning to B2, the localisation_or_trafficking entry in data set [2] and in data set [3] was “decreases” in each case. In addition, the “localisation_or_trafficking, other: surface fraction of total protein” value in data set [4] is “decreases, ~1 vs approximately 4”.
